Measurements from the supplement of paper PMC9170038.

Tested on: MS2 coat protein
Assay: apparent KD of MS2 coat protein; higher = weaker reporter binding
Details: Eterna round: R107
Method in brief: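 Designed RNA switches were transcribed on-chip from Illumina sequencing clusters. They were then titrated with SNAP-549-labelled MS2 coat protein (twofold steps, 0.7 or 1.5 nM to 3 µM; 0.8–1.5 h to 10–20 min per step) in 100 mM Tris-HCl pH 7.5, 80 mM KCl, 4 mM MgCl2, without or with constant ligand. Apparent KD is the per-design median of normalised cluster binding-curve fits.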

[1] = input ligand: theophylline 20 uM
[2] = input ligand: theophylline 2 mM
[3] = input ligand: tryptophan 2.4 mM

Sequence	apparent KD of MS2 coat protein (input ligand: arginine 13.2 mM) [nM]	apparent KD of MS2 coat protein [1] [nM]	apparent KD of MS2 coat protein [2] [nM]	apparent KD of MS2 coat protein (input ligand: none) [nM]	apparent KD of MS2 coat protein [3] [nM]
GUGUGGAGCUCGGCCGCCACUCAAACAUGAGGAUCACCCAUGUAAAACAUGAGGAUCACCCAUGUGAGGACCGGGAGAAACACGA [Exclusion Tryptophan B GF8]	179	329	408	–	–
GUUAAUAGAAAACUAUUAACAGUGGGUGAACGAGGACCGGUACGGCCGCCACUCGGACAUGAGGAUCACCCAUGUCCAUGUGAAA [AstrosExyTryA#5]	18.6	16.9	15.6	16.9	35.4
GUUACCAUGUCGGCCGCCACUAACAAGGUUAUGGCAAGUCUACACGACAUGAGGAUCACCCAUGUUAGGACCGGGACCCAUACCC [theeternabot_exclusion_MS2_Trp_B_44]	12.2	17.5	16.2	–	–
GUUAGUUACACGGCCGCCACUCUUUGGCUUGGCUCAAGCUCCCAACAUGAGGAUCACCCAUGUCAGAGGACCGGGUGAACAACGU [theeternabot_sameState_MS2_Trp_B_28]	56.1	180	205	–	–
GUUAUAGACGGAAGGAGCGCGACCACAUGAGGAUCACCCAUGUAUUGUGUUGGUAAUAGGUCGCAGGUAGGUCGCCGGUUAAUGA [#04 Same State - Arginine B]	27.1	50.1	38	36.6	31
GUUAUAUACUCGGCCGCCACUGAGAGAGUCAUGUAAACAUGAGGAUCACCCAUGUAAUAUAUAUACAGGACCGGGAGUAUAGUAA [4.D]	19.8	22	19.6	–	–
GUUGAGACCUCGGCCGCCACUCGCCAUGAGGAUCUCCCAUGUAACAUGAGGAUCACCCAUGUACUGAGGACCGGGAGGUCCUUGU [Same State Tryptophan B GF 16]	12	18.5	15.5	–	–
GUUGGAUACUCGGCCGCCACUGAGAGAGUCAUGUGAACAUGAGGAUCACCCAUGUAAUAUAUAUACAGGACCGGGAGUGUUGUAA [4.I]	20.3	43.7	32.5	–	–
GUUGGUUUGCGAAGGAGCGGGUAUGUUUUCUACUGGAUCCUAACAUGAGGAUCACCCAUGUCCCAGGUAGGUCGCGCGGGCUUUG [12.aA]	35.6	75.2	54.5	38.6	45.8
UAAAACAUGAGGAUCACCCAUGUAAAUGAUACCAGAGUGAUGAUCCUCCCUUGGCAGCAUAACGCUGAUUGAUUACAAUCAGCGA [Mat - Same State Theophlline A - Mod of Eli - D22]	55.2	160	–	–	58.3
UAAACUACACAUGAGGAUCACCCAUGUGGCCGAGGACCGGUACGGCCGCCACUCGUGUGUUAAUAAAAGAACCGCAAAGUUCUUU [Raesonisso]	74.2	410	678	–	–
UAAAUACAUGAGGAUCACCCAUGUUUGGAUACCAGAUAUGACAUUAUCCCUUGGCAGCCAUUCGUUCCAAAUGCUAUUGUGAAGG [theeternabot_sameState_MS2_Theo_A_26]	20.6	30.8	–	–	22
UAAUAAAUAAAUCCAAGGUGAAGGUCAGAUACCAGCCAGAUAACUGGCCCUUGGCAGCUGAAUAAACUUGAGGAACACCCAAGUA [TheoAS 28 #OpenEnded #MS2Late #AlternativeMS2]	16.7	31.3	82	23	22.7
UAAUAAGUGCCGGUUCUCAGAUCCUCAUGUCGAGGACCGGUACGGCCGCCACUCGAAACAUGAGGAUCACCCAUGUAAUAAUAAU [#08 Exclusion Tryptophan A]	47.8	105	73.1	–	–
UAAUCGUAGGCGGCCGCCACUUUUUGGUAGUGUCCAUUGUACACUCACAUGAGGAUCACCCAUGUAAGGACCGGGCCCGCAUCAG [theeternabot_exclusion_MS2_Trp_B_32]	17.9	24.7	17.7	–	–
UAAUGCAUGACGGCCGCCACUAGAACAUGAGGAUCACCCAUGUACGGCGGCCGUCAUGGGUGGACUAGGACCGGGUCAUGCAUAU [(Trp1)-(Ms2)-(T)'-(M)'-(Trp2)_Design5]	8.2	11.6	10.5	–	–
UACAUGAGGAUCACCCAUGUCGGCAGGGAAGGAGCGGCAAUAAAGCCAGGUAGGUCGCCCAUUAGUAUUUAUAAAUAAAUAUCCA [Same State - Arginine A]	53.6	74.4	75.9	90	66.9

Sequence	apparent KD of MS2 coat protein (input ligand: arginine 13.2 mM) [nM]	apparent KD of MS2 coat protein [1] [nM]	apparent KD of MS2 coat protein [2] [nM]	apparent KD of MS2 coat protein (input ligand: none) [nM]	apparent KD of MS2 coat protein [3] [nM]
UACAUGAGGAUCACCCAUGUGUAGAGGGAUACCAGUGACAGUAAGCGCCCUUGGCAGCCCGUGAACAAUGGGUGAGCUAAAUAGU [#18 Exclusion-TheophyllineA]	28.7	75.5	133	37.9	57.4
UACCGAUGAAGAAGGAGCGAUUUUAUGUUACAUGAGGAUCACCCAUGUGGACUAGGUGAAGAUCAGGUAGGUCGCUUCAUCGGUA [SSAB NP+V+V2 #20]	19.8	31.9	22	20.3	24.5
UACUUACAUGAGGAUCACCCAUGUGGCGAAGGAGCGGCAUGAGGGCCAGGUAGGUCGCGCCAACAUACAUACAUGAGGAUCUCCC [Same State Arginine A 4]	46.3	127	118	78.9	93.1
UAGCGAUUUGGUGAUACCAGACGUGUGCAGUCCUCAGACAUGAGGAUCACCCAUGUAUGCGUCCCUUGGCAGCGCUAUGAGGACA [Theo B Ex t6]	66.5	105	201	48.4	44.3
UAUACAUGAGGAUCACCCAUGUGCCAUGAUACCAGACAUGAAAAUGUCCCUUGGCAGCAUGGGAAAUGUAUAGCGGGAAACCCGA [Slatina]	52.7	201	–	–	60.8
UAUAUAUAUCACUAACUGUUGUGGACGUCUCGAGGACCGGUACGGCCGCCACUCGGGCGGCCUCACAUGAGGAUCACCCAUGUCC [XTryp A #4]	92.9	192	149	–	–
UAUAUAUUGAUGGAUACCAGCAGAGAAAACGUUUAUCCUAACAUGAGGAUCACCCAUGUAUGCCCUUGGCAGCUGUUGAUAUAUA [8.K]	21.7	28.7	–	–	18.4
UAUCCACAUGAGGAUCACCCAUGUAGGGAAGGAGCGGUGGUUGCACCAGGUAGGUCGCCUUGCUGAGGAUAACCGGUGGAAUCGU [Exclusion - Arginine A (Freestyle 28)]	32.8	26.9	33.6	18.8	31.1
UAUGAGCGCACGGCCGCCACUGUCUUCAUCUGUUUGUCUACAUGAGGAUCACCCAUGUUGGUUUACAGGACCGGGUGCAACUAUG [SSTryp B #10]	26.9	38.1	33.8	–	–
UCACAUGAGGAUCACCCAUGUACAACUGAAGGAGCGAGACAAAACUCAGGUAGGUCGCAGAAUAAACAAUAGCAUACGACAUGGG [Exclusion Arginine A GF 19]	44.6	43.1	26.3	31	27.7
UCACGACGCAACGUGAAAUAAUAAACAGAAGGAGCGAGGAAAGCCUCAGGUAGGUCGCUGACAUGAGGAUCACCCAUGUAUUACA [Same State Arginine A GF5]	27.1	41.2	35.1	31.5	32.2
UCCACAUGAGGAUCACCCAUGUAAUCAGAUACCAGUGACGAAAGUCACCCUUGGCAGCUGAUUACUUUAGUUCGAGGGUGUUUGA [EThA NP+V+V2 #4 Same Structure]	84.5	148	–	–	79.5
UCGACAGUGAACGAUACCAGCGUCACGUGGCCGGUGGUCACAUGAGGAUCACCCAUGUAACGCCCUUGGCAGCGUGCACGUAUCA [Latedirius]	20.5	46.3	–	–	20.5
UCGAUGGUAUCUGAUACCAGUAGCGUGCGUUACAUGAGGAUCACCCAUGUGCCUAUACUUUACCCUUGGCAGCAGUGGAUUCGAU [theeternabot_sameState_MS2_Theo_B_22]	57.1	144	–	–	241
UCGCCCAGGAAGGAUUCCUGGGAUAUGGAAGGAGCGCUGAUGCCAGCAGGUAGGUCGCCAACGGACAUGAGGAUCACCCAUGUAC [Same State - Arginine A (Freestyle 8)]	14.5	22.7	26.6	19.9	21.2
UCGCGAUAGAGAAGGAGCGUCAACACCACAGAACAUGAGGAUCACCCAUGUGUUACUUUUAGACAGGUAGGUCGCUCUAGCGCUU [JR_Nu_ExcArginiB_Sub028]	14	18.3	16.4	12.2	13.3
UCGCUAUUGUCGGCCGCCACUACUGCAGGGAAACAAAUAUAACCACAUGAGGAUCACCCAUGUCUUAGGACCGGGACACCCAUCU [theeternabot_sameState_MS2_Trp_B_2]	54.8	126	119	–	–
